According to article PMC9201945 (Frontiers in Molecular Neuroscience, 2022):
One block for each molecule: values may come before it.

Experiments:
GFP-PICK1 BAR domain = assay: cross-linking; HEK293 cells in 2 ml PBS with 0.3 mM DSS for 20 min at room temperature, quenched with 50 mM Tris, lysed, Western blot (anti-GFP or anti-PICK1); for untagged PICK1 after 5 min with 3 μM ionomycin and a range of extracellular CaCl2
[1] = target: the molecule itself; assay: as above
[2] = target: the molecule itself; assay: cross-linking; 100 nM purified his6 protein in 150 mM NaCl, 20 mM HEPES pH 7.4, 5 mM HEDTA, CaCl2 to give [Ca2+]free of 0, 2, 5, 12, 26 μM; 10 μM DSS for 20 min at room temperature, quenched with 50 mM Tris; Western blot with anti-PICK1

stoichiometry N (GFP-PICK1 BAR domain): 2
Molecule: GFP-PICK1 BAR domain (domain or fragment)

B1: GFP-Endophilin A1 (natural protein, UniProt Q99962 1-352, looked up)
chain: MSVAGLKKQFHKATQKVSEKVGGAEGTKLDDDFKEMERKVDVTSRAVMEIMTKTIEYLQPNPASRAKLSMINTMSKIRGQEKGPGYPQAEALLAEAMLKFGRELGDDCNFGPALGEVGEAMRELSEVKDSLDIEVKQNFIDPLQNLHDKDLREIQHHLKKLEGRRLDFDYKKKRQGKIPDEELRQALEKFDESKEIAESSMFNLLEMDIEQVSQLSALVQAQLEYHKQAVQILQQVTVRLEERIRQASSQPRREYQPKPRMSLEFPTGDSTQPNGGLSHTGTPKPSGVQMDQPCCRALYDFEPENEGELGFKEGDIITLTNQIDENWYEGMLHGHSGFFPINYVEILVALPH
notes: Endophilin A1, BAR domain protein; plasmid a gift from Dr. Ira Milosevic; The methods name only one 'GFP-endophilin'; source: HEK293, transfected, cross-linked in cells, in lysate
stoichiometry N [1]: 2

B2: Amphiphysin2-GFP (natural protein, UniProt O00499 1-593, looked up)
chain: MAEMGSKGVTAGKIASNVQKKLTRAQEKVLQKLGKADETKDEQFEQCVQNFNKQLTEGTRLQKDLRTYLASVKAMHEASKKLNECLQEVYEPDWPGRDEANKIAENNDLLWMDYHQKLVDQALLTMDTYLGQFPDIKSRIAKRGRKLVDYDSARHHYESLQTAKKKDEAKIAKPVSLLEKAAPQWCQGKLQAHLVAQTNLLRNQAEEELIKAQKVFEEMNVDLQEELPSLWNSRVGFYVNTFQSIAGLEENFHKEMSKLNQNLNDVLVGLEKQHGSNTFTVKAQPSDNAPAKGNKSPSPPDGSPAATPEIRVNHEPEPAGGATPGATLPKSPSQLRKGPPVPPPPKHTPSKEVKQEQILSLFEDTFVPEISVTTPSQFEAPGPFSEQASLLDLDFDPLPPVTSPVKAPTPSGQSIPWDLWEPTESPAGSLPSGEPSAAEGTFAVSWPSQTAEPGPAQPAEASEVAGGTQPAAGAQEPGETAASEAASSSLPAVVVETFPATVNGTVEGGSGAGRLDLPPGFMFKVQAQHDYTATDTDELQLKAGDVVLVIPFQNPEEQDEGWLMGVKESDWNQHKELEKCRGVFPENFTERVP
notes: Amphiphysin 2, BAR domain protein; plasmid a gift from Dr. Emmanuel Boucrot; Called Amphiphysin2-GFP in the methods and ^GFPAmphiphysin in the results and the legend; also called ^GFPAmphiphysin; ^GFPamphiphysin; source: HEK293, transfected, cross-linked in cells, in lysate
stoichiometry N [1]: 2

B3: his6ΔNT-PICK1 (natural protein, UniProt Q9EP80 1-416, looked up)
chain: MFAKLGIPTVPGKVTLQKDAQNLIGISIGGGAQYCPCLYIVQVFDNTPAALDGTVAAGDEITGVNGRSIKGKTKVEVAKMIQEVKGEVTIHYNKLQADPKQGMSLDIVLKKVKHRLVENMSSGTADALGLSRAILCNDGLVKRLEELERTAELYKGMTEHTKNLLRAFYELSQTHRAFGDVFSVIGVREPQPAASEAFVKFADAHRSIEKFGIRLLKTIKPMLTDLNTYLNKAIPDTRLTIKKYLDVKFEYLSYCLKVKEMDDEEYSCIALGEPLYRVSTGNYEYRLILRCRQEARARFSQMRKDVLEKMELLDQKHVQDIVFQLQRFVSTMSKYYNDCYAVLRDADVFPIEVDLAHTTLAYGPNQGGFTDGEDEEEEEEDGAAREVSKDARGATGPTDKGGSWCDS
notes: source: E. coli BL21(DE3), pET28, purified (Ni-NTA)
stoichiometry N [2]: 2

B4: his64A-PICK1 (natural protein, UniProt Q9EP80 1-416, looked up)
chain: MFADLDYDIEEDKLGIPTVPGKVTLQKDAQNLIGISIGGGAQYCPCLYIVQVFDNTPAALDGTVAAGDEITGVNGRSIKGKTKVEVAKMIQEVKGEVTIHYNKLQADPKQGMSLDIVLKKVKHRLVENMSSGTADALGLSRAILCNDGLVKRLEELERTAELYKGMTEHTKNLLRAFYELSQTHRAFGDVFSVIGVREPQPAASEAFVKFADAHRSIEKFGIRLLKTIKPMLTDLNTYLNKAIPDTRLTIKKYLDVKFEYLSYCLKVKEMAAAAYSCIALGEPLYRVSTGNYEYRLILRCRQEARARFSQMRKDVLEKMELLDQKHVQDIVFQLQRFVSTMSKYYNDCYAVLRDADVFPIEVDLAHTTLAYGPNQGGFTDGEDEEEEEEDGAAREVSKDARGATGPTDKGGSWCDS
notes: PICK1 with residues 271DDEE274 in the BAR domain substituted by alanines; source: E. coli BL21(DE3), pET28, purified (Ni-NTA)
stoichiometry N [2]: 2
